System: Escherichia coli TOP10
Assay: shrunken log2 fold change of peptide-encoding DNA abundance (4.5 h post-induction vs induction); higher = less antimicrobial activity (less host growth inhibition)
Settings: time post-induction: 4.5 h; library: site-saturation at positions 5, 18, 19, 20
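Note: peptides expressed intracellularly from a pBAD plasmid library in pooled LB shake-flask culture, induced with 0.3% L-arabinose, DNA abundance read by NGS, three biological replicates, DESeq2 with apeglm shrinkage.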

RRIRLRPPRLPRPRPRPENPPRP
shrunken log2 fold change: -0.173

RRIRERPPRLPRPRPRPEAIPRP
shrunken log2 fold change: -0.0664

RRIRFRPPRLPRPRPRPKVDPRP
shrunken log2 fold change: -0.0492

RRIRFRPPRLPRPRPRPHEMPRP
shrunken log2 fold change: -0.0108

RRIRHRPPRLPRPRPRPQRHPRP
shrunken log2 fold change: 0.0629

RRIRPRPPRLPRPRPRPPMRPRP
shrunken log2 fold change: 0.833

RRIRDRPPRLPRPRPRPRQCPRP
shrunken log2 fold change: -0.0309

RRIRVRPPRLPRPRPRPSRWPRP
shrunken log2 fold change: 0.278

RRIRGRPPRLPRPRPRPEDHPRP
shrunken log2 fold change: 0.536

RRIRARPPRLPRPRPRPWKKPRP
shrunken log2 fold change: -0.0663

RRIRYRPPRLPRPRPRPYTKPRP
shrunken log2 fold change: -0.351

RRIRGRPPRLPRPRPRPFWWPRP
shrunken log2 fold change: 0.806

RRIRHRPPRLPRPRPRPCRAPRP
shrunken log2 fold change: 0.0188

RRIRSRPPRLPRPRPRPITTPRP
shrunken log2 fold change: -0.578

RRIRFRPPRLPRPRPRPYMSPRP
shrunken log2 fold change: -0.401

RRIRTRPPRLPRPRPRPVPIPRP
shrunken log2 fold change: -0.0974

RRIRTRPPRLPRPRPRPNKRPRP
shrunken log2 fold change: -0.265

RRIRFRPPRLPRPRPRPCVTPRP
shrunken log2 fold change: -0.492

RRIRDRPPRLPRPRPRPYIRPRP
shrunken log2 fold change: -0.12

RRIRDRPPRLPRPRPRPDNEPRP
shrunken log2 fold change: -0.0213

RRIRNRPPRLPRPRPRPYTEPRP
shrunken log2 fold change: -0.695

RRIRPRPPRLPRPRPRPSEHPRP
shrunken log2 fold change: -0.233

RRIRTRPPRLPRPRPRPVPGPRP
shrunken log2 fold change: 0.151

RRIRQRPPRLPRPRPRPQKYPRP
shrunken log2 fold change: -0.517

RRIRVRPPRLPRPRPRPHELPRP
shrunken log2 fold change: 0.118

RRIRQRPPRLPRPRPRPYFKPRP
shrunken log2 fold change: -0.454

RRIRWRPPRLPRPRPRPHDLPRP
shrunken log2 fold change: -0.0525

RRIRMRPPRLPRPRPRPDYNPRP
shrunken log2 fold change: -0.21

RRIRSRPPRLPRPRPRPNLWPRP
shrunken log2 fold change: -0.075

RRIRLRPPRLPRPRPRPHRAPRP
shrunken log2 fold change: -0.0697

RRIRLRPPRLPRPRPRPNTLPRP
shrunken log2 fold change: -0.136

RRIRERPPRLPRPRPRPFHLPRP
shrunken log2 fold change: -0.173

RRIRARPPRLPRPRPRPPPHPRP
shrunken log2 fold change: 1.03

RRIRPRPPRLPRPRPRPAYFPRP
shrunken log2 fold change: -0.16

RRIRSRPPRLPRPRPRPQYMPRP
shrunken log2 fold change: -0.695

RRIRDRPPRLPRPRPRPALSPRP
shrunken log2 fold change: 0.0869

RRIRVRPPRLPRPRPRPMTIPRP
shrunken log2 fold change: -0.435

RRIRMRPPRLPRPRPRPGMAPRP
shrunken log2 fold change: 1.19

RRIRNRPPRLPRPRPRPCIDPRP
shrunken log2 fold change: 0.027

RRIRKRPPRLPRPRPRPPNIPRP
shrunken log2 fold change: -1.03

RRIRLRPPRLPRPRPRPIFSPRP
shrunken log2 fold change: -0.182

RRIRYRPPRLPRPRPRPTKVPRP
shrunken log2 fold change: -0.235

RRIRWRPPRLPRPRPRPTLMPRP
shrunken log2 fold change: 0.479

RRIRIRPPRLPRPRPRPDLDPRP
shrunken log2 fold change: -3.99e-05

RRIRTRPPRLPRPRPRPVQAPRP
shrunken log2 fold change: 0.0641

RRIRLRPPRLPRPRPRPKYGPRP
shrunken log2 fold change: -0.364

RRIRLRPPRLPRPRPRPDTTPRP
shrunken log2 fold change: -0.138

RRIRGRPPRLPRPRPRPEKTPRP
shrunken log2 fold change: -0.0522

RRIRNRPPRLPRPRPRPTLIPRP
shrunken log2 fold change: -0.461

RRIRHRPPRLPRPRPRPACLPRP
shrunken log2 fold change: -0.221

RRIRWRPPRLPRPRPRPSIRPRP
shrunken log2 fold change: -0.613

RRIRVRPPRLPRPRPRPKAFPRP
shrunken log2 fold change: 0.00341

RRIRERPPRLPRPRPRPANCPRP
shrunken log2 fold change: -0.65

RRIRIRPPRLPRPRPRPHYVPRP
shrunken log2 fold change: -0.342

RRIRERPPRLPRPRPRPYYVPRP
shrunken log2 fold change: -0.559

RRIRRRPPRLPRPRPRPYPDPRP
shrunken log2 fold change: -0.0558

RRIRFRPPRLPRPRPRPHRPPRP
shrunken log2 fold change: -0.157

RRIRRRPPRLPRPRPRPAMDPRP
shrunken log2 fold change: 0.0975

RRIRHRPPRLPRPRPRPDYLPRP
shrunken log2 fold change: -0.998

RRIRKRPPRLPRPRPRPCVDPRP
shrunken log2 fold change: 0.268

RRIRSRPPRLPRPRPRPDGFPRP
shrunken log2 fold change: -0.0636

RRIRIRPPRLPRPRPRPSPHPRP
shrunken log2 fold change: -1.03

RRIRYRPPRLPRPRPRPDNLPRP
shrunken log2 fold change: -0.196

RRIRVRPPRLPRPRPRPPLQPRP
shrunken log2 fold change: 0.272

RRIRGRPPRLPRPRPRPEKFPRP
shrunken log2 fold change: 0.716

RRIRHRPPRLPRPRPRPWDWPRP
shrunken log2 fold change: -0.00132

RRIRKRPPRLPRPRPRPNTPPRP
shrunken log2 fold change: 0.221

RRIRDRPPRLPRPRPRPRPSPRP
shrunken log2 fold change: 0.329

RRIRSRPPRLPRPRPRPIMFPRP
shrunken log2 fold change: -0.304

RRIRCRPPRLPRPRPRPVDLPRP
shrunken log2 fold change: -0.348

RRIRMRPPRLPRPRPRPWHRPRP
shrunken log2 fold change: -0.0718

RRIRRRPPRLPRPRPRPSTYPRP
shrunken log2 fold change: -0.418

RRIRLRPPRLPRPRPRPRMLPRP
shrunken log2 fold change: -0.0478

RRIRPRPPRLPRPRPRPVLAPRP
shrunken log2 fold change: 0.668

RRIRPRPPRLPRPRPRPRPWPRP
shrunken log2 fold change: 0.212

RRIRYRPPRLPRPRPRPGQNPRP
shrunken log2 fold change: -0.01

RRIRIRPPRLPRPRPRPLWQPRP
shrunken log2 fold change: 0.0858

RRIRRRPPRLPRPRPRPRIEPRP
shrunken log2 fold change: 0.261

RRIRGRPPRLPRPRPRPTCGPRP
shrunken log2 fold change: 0.915

RRIRGRPPRLPRPRPRPAGPPRP
shrunken log2 fold change: 0.644

RRIRTRPPRLPRPRPRPYKFPRP
shrunken log2 fold change: 0.00477

RRIRVRPPRLPRPRPRPRDCPRP
shrunken log2 fold change: 2.64

RRIRTRPPRLPRPRPRPSWPPRP
shrunken log2 fold change: 0.0669

RRIRLRPPRLPRPRPRPFNKPRP
shrunken log2 fold change: -0.324

RRIRSRPPRLPRPRPRPMCDPRP
shrunken log2 fold change: -0.147

RRIRGRPPRLPRPRPRPWFVPRP
shrunken log2 fold change: -0.314

RRIRERPPRLPRPRPRPYEPPRP
shrunken log2 fold change: 0.029

RRIRIRPPRLPRPRPRPLHYPRP
shrunken log2 fold change: -0.779

RRIRIRPPRLPRPRPRPYHEPRP
shrunken log2 fold change: -0.216

RRIRVRPPRLPRPRPRPKMCPRP
shrunken log2 fold change: -0.00991

RRIRARPPRLPRPRPRPYVDPRP
shrunken log2 fold change: -0.16
